B1: Meiotic recombination protein REC114 (Homo sapiens), Q7Z4M0 (parent)
chain: MAEAGKVPLSLGLTGGEAAEWPLQRYARCIPSNTRDPPGPCLEAGTAPCPTWKVFDSNEESGYLVLTIVISGHFFIFQGQTLLEGFSLIGSKDWLKIVRRVDCLLFGTTIKDKSRLFRVQFSGESKEQALEHCCSCVQKLAQYITVQVPDGNIQELQLIPGPPRATESQGKDSAKSVPRQPGSHQHSEQQQVCVTAGTGAPDGRTSLTQLAQTLLASEELPHVYEQSAWGAEELGPFLRLCLMDQNFPAFVEEVEKELKKLAGLRN
partner: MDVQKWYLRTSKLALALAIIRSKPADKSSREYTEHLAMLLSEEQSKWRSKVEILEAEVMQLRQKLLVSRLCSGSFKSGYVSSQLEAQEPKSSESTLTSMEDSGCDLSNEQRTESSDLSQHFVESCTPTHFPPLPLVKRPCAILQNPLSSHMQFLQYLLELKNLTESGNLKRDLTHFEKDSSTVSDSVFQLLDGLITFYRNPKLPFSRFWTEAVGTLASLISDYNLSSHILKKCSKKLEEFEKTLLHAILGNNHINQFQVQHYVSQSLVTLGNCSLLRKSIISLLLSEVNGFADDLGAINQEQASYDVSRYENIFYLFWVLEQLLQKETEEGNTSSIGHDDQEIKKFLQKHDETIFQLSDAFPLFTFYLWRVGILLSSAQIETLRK

Variants of: B1
Conditions: with mei4_human MEI4, A8MW99

| Variant | effect of a mutation on the interaction |
| --- | --- |
| C133G | with no effect |

From IntAct's records for PubMed 31704776
